Experimental data reported in a protein production outcome set (Wang et al. 2014).

Test: label from the status in PepcDB records
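Further: failed if final PepcDB status was selected cloned or expressed and not failed if soluble or beyond.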

Sequence | protein production
MLDAKTSTLLWAAETFTLAVLLGTLWLHRPSRRHNLYFAAGFLATGFGTVMVALRGDISSFLSIQVGNTLALSAFGFWLAGLLSLEQRKLGGWIAIPALLWIAGMFVPSVPEDMVARILLYHASAATGYFMLAGVLLGSRARASRSRKVLATILILQAFAGAIVASIVIPANAAVPNAIPMTSALSISGMLGFTAIIMISAKIIMEDTEIRLHRLAMTDHLTGVLNRRGLLEEFEHIKKRSHGSDRYVALVLFDIDHFKKINDRYGHQSGDAVLVHFCNIAQRVIGERGLFVRMGGEEFALVAEVESPSSTVTLAEAIRSNLRLSKITARNEAIKVTTSVGISEAMIKDADLSVMMTEADRALYAAKKAGRNRTVIHVNSANVVVPAPDRDENPMDNNADRQVAALNRISAIASR | failed
MFYKEENFKKTEIGEIPEDWEIVELKDVCKKIKAGGTPKTSVEEYYKNGTIPFVKIEDITNSNKYLTNTKIKITEEGLNNSNAWIVPKNSVLFAMYGSIGETAINKIEVATNQAILGIIPKDNILESEFLYYILAKNKNYYSKLGMQTTQKNLNAQIVKSFKIPLPPLEEQKQIAKILTKIDEGIEIIEKSINKLERIKKGLMHKLLTKGIGHSRFKKSEIGEIPEDWEVFEIKDIFEVKTGTTPSTKKSEYWENGEINWITPLDLSRLNEKIYIGSSERKVTKIALEKCNLNLIPKGSIIISTRAPVGYVAVLTVESTFNQGCKGLFQKNNDSVNTEFYAYYLKFKKNLLENLSGGSTFKELSKSMLENFKIPLPPLEEQKQIAKILSSVDKSIELKKQKKEKLQRMKKKIMELLLTGKVRVKT | not failed
HQPNIIPYHKGFYRAFSKLHTTTFKYQAQSPQDIIDSLDDHHHLFLFVSEGLLKGYLYLEIDSQQSIAEIKYFSSHVDYRLKGIAFELLAYALQYAFDNFDIRKVYFKIRNKNNKLIERFNGLGFHINYEYIKFKFESRNVKDQTIPE | failed
MRPTARNLAPLLAVLCAPPALLAGCGHAEPRPRAAAQDRDGLSALWSYYRYTHVQGGRVAALDEGGVTTSEGQGYAMLRAVWMDDRATLDAVWRWTRENLAVREDRLLAWRWLDGKVKDRNAATDADQDVALALVLASRRFGDPRYLEAARPLLADIWAREVIRAGGRWLPTGGNWAPAERYPTLHVAYLAPYAYQVFADVDPERPWAELVESSYQVLRFLMIEKGLALPPERIWVDPRTGELLLARPGGQPDAFGYDAVPVYWRVALDARWFGRRGEAELRARLLRFPAEAFRDEGRLRERYTTSGRPLSELDGLPHLASVQALAQLEDPELARAMRASKLDALFDRALSGEATPYYLHNWLWFGRALEAGLLRRFDEPLAFLSSLDWGAFRDRFPLLPVALAVVLAPLARRLWPARAALVALALGLSIRYLAWRAGSTLNFVEPLGPALSLALLAAEAYALSTVALLVVQVGLRHRARPPEPPLGAGEPHPSVDVMVPIYSEPLDILDKTLAACAALRYPRKTIVVCDDSHREEVARLAAEHGARYLAGPRRHAKAGNLNAALARTDGELVVVFDTDHVPTAAFLERTVPCFRDPRLGVVQTPHHFYNPDVFQRALGAPASVPNEADLFNHAIQGGRDRWGGAFFVGSGAVFRREALASVGGFHLLSITEDIHTSQKLHAGGWRTRFVDEDLAAGLSAEDLASYVVQRRRWMLGCLQIFFRDNPLLQRGLPLRHRLGYLASLWYFFFPLARLVFFATPLAYLLFHLHPLFAELPVLLAYLVPHLVAAPLAASALVPGWPRLLWGGLYEGAVAFPLARATLDLLLPRRLGFKVTPKGVRSERRRFDLRTSAFTLAAAAVGLLAIAKGAAELWAFGIEVEAYAFNLAWAGANLVSVLLALLVAWERPQRREDERIRRRVPVRLEAPGLSLEASTLDLARGGAAVALPPGAALPAEVEVTFDGPEGLRLRARVAYVEPVDGAPRAGLAFQGVGAAEARALVRIAFSADGAHAGAHDGRSRWQAAMAWHLLAGLWRAVRPLRPRRRLGARRRTLRPLRLCGAGRACRALAVDASAGGLGLVAAGARGAIPAPGTALALLAPEGIGWARVVHARRILPGLWRLGLALQAEPVPGAEPHAYLAA | failed
MMTKYGVVGTGYFGAELARFMSKVEGAKITAIYDPVNAAPIAKELNCVATATMEALCSHPDVDCVIIASPNYLHKAPVIAAAKAGKHVFCEKPIALNYQDCKDMVDACKEAGVTFMAGHVMNFFHGVRHAKALIKAGEIGEVTQVHTKRNGFEDVQDEISWKKIRAKSGGHLYHHIHELDCTLFIMDETPSLVSMAAGNVAHKGEKFGDEDDVVLITLEFESGRFATLQWGSSFHYPEHYVLIEGTTGAILIDMQNTAGYLIKAGKKTHFLVHESQAEDDDRRNGNISSEMDGAIAYGKPGKRTPMWLSSIMKLEMQYLHDVINGLEPGEEFAKLLTGEAATNAIATADAATLSSNEGRKVKLTEILGLEHHHHHH | not failed
MATTLPRITARVDVDTQDLLAKAAALAGMSSINSFVLNAAIEKAKQVIEREQALKLSQADAVLLMEALDNPAVVNAKLKLASERYESKTQ | failed
MVQVPPPPPTGFADHASAAEDREAGDGPAPSIAEGLSAALFQSVVEALPVGTALLRDGVIVHANATLAGQIGETIDTLIGSPLTSYLTPADALAVQKVVEGAIALHGGVPVRRIAHIRHISGSERVYSLRFSPLDNGPHPLLVVITRDMTAQVAAENALRAAEGKYRAIFENAVEGIYQSTPDGTYLDVNPALARIYGYASPAELIAHFTDIASQLYVDGTKRGEFQRLMRETGEVRDFTAEVWRCDGHTIWITENARCVRGPDNEVLYYEGTVEDITAQRQSQETMRLLGKVFTSIAEGIVLLERDLTVRTVNPAFEAMTGLLRQDMEGRPARLFASGLHENDFLATVAAEVDRAGLWRGEIWGERREGPPYSGEMTVTAVRTRAGETTHYVAAITDITKRKRDEEHIRFQANFDMLTHLPNRHLIMDRLEQAMHQAQRTGRQVCVMFLDLDRFKQINDSYGHSAGDEVLKLTARRLRNCVRISDSVGRLGGDEFIVILSNVEDQHAGAYIAEKILYSLSEPFPIGGTEVFCIPSVGITYFPDHGETAPDLLRNADVAMYHAKQGGERRYAIFTPDMARRSLALLTMESDLRHALARDEFELHFQPKVRADLTLIGAEALIRWRHPEKGLINPGDFIPLAEESGLILPIGRWTLREACDRVMSWRAEGLTIPSVSVNVSPRQFQDQTLVETVRQILVETGLEPEALDLEITETVMTGDVEHAVGTLRALKDLGVTLSIDDFGTGYSSLNYLKTFPIDTLKIDQTFVRDVLHSGKDAAIVSTIIALARNLGFSVVAEGVEEIEQAEFLGSRDCQNFQGFLYSRPLPPAEFTTFLRTAKLETATPPDLVPSIAPGP | failed
MVNTRTRMSAIVATLGLVGSLALATASADESRTSGSAAQIALTEVARAQNPTAGAAGPQDTVWIAERAGTVRVLGDDGLGEPVLDISDETTTDGERGLLGLAFDERFAHLYLSYTDLEGTSTVDEFAVQDGTVREDTRRTVLTQEQPESNHNGGAITFGPDGYLYIALGDGGGGGDPQGNGQKLDTLLGKLLRIDPQGGDPYAIPEDNPFADDPDARGEIWSYGLRNPWRFSFDAGSGDLLIGDVGQSDWEEIDWAPASSPGGENYGWSQMEGTHPFRGGTEPANHVPPIHEYDRTGLGCSVTGGYVYRGEAVPGLAGQYVYSDYCDGTLRSLEIEDGRVTGEHDLGVNGGEVVSFAQDGDGELYVLAIGGTVSRVDPA | failed
MTVEYTASDLATYQNEVNEQIAKNKAHLESLTHPGSKVTFPIDQDISATPQNPNLKVFFFDIDNCLYKSSTRIHDLMQQSILRFFQTHLKLSPEDAHVLNNSYYKEYGLAIRGLVMFHKVNALEYNRLVDDSLPLQDILKPDIPLRNMLLRLRQSGKIDKLWLFTNAYKNHAIRCLRLLGIADLFDGLTYCDYSRTDTLVCKPHVKAFEKAMKESGLARYENAYFIDDSGKNIETGIKLGMKTCIHLVENEVNEILGQTPEGAIVISDILELPHVVSDLF | not failed
MRILIASQPIAGHVLPLREIARELARRGHELRWYTGRKFRPQVEAAGAVWEGFVHARDYDDANFDAAFPGRSARRGLAQLLFDLRHVFVGQMEGQFYDLRDLERRWRPDVVLADQTVGAALLREELGGPPVALLGVLPLGIASRDTAPFGLGLAPLGGAAGQLRNRALQVLTERVVFRGISAQLADLCTWLGLPARSFAPPVAPSLMLQPSVPRLEYLRRDLPPQVRFIGPLVLPAGEFTPPAWWNDILTAERPVVLVTQGTLATRPEQLLRPALAALADEDVLVVAAGVAPERLGPLPANARAAAFVPFTALLPHVAVSLTNGGYGGTVQALSHGVPCVVAGRSEDKAEVAARVAYSGAGLNLGTATPSPARIRAAVRRVLREPAFREQAGELGHELRQHDAPREAADWLETLGGKKLEHHHHHH | failed
MENLKNVAPIEDFNWDAYENGEAVTSASHEDLEKAYDGTLNKVNDREVVDGTVIAMNKREVVVNIGYKSDGIIPLNEFRYNPDLKVGDTVEVYIENQEDKKGQLVLSHRKARATRSWDRVNAALENEEIIKGFIKCRTKGGMIVDVFGIEAFLPGSQIDVKPIRDYDVFVGKTMEFKVVKINQEFKNVVVSHKALIEAELEQQKKEIIGKLEKGQVLEGTVKNITSYGVFIDLGGVDGLIHITDLSWGRVSDPKEVVELDQKLNVVILDFDDEKKRIALGLKQLTPHPWDALDTDLKVGDKVKGKVVVMADYGAFIEIATGVEGLIHVSEMSWSQHLRSAQDFMKVGDEVEAVVLTLDREERKMSLGIKQLKQDPWETIEEKYPVGSKHTAKVRNFTNFGVFVEIEEGVDGLIHISDLSWTKKVKHPSEFTQIGADIEVQVLEIDKENRRLSLGHKQLEENPWDVFETVFTVGSVHEGTIIEMLDKGAVVALPYGVEGFATPKHLVKEDGSQAQLDEKLEFKVIEFNKDAKRIILSHSRIFEDVAKAEERAEKKAASGAKKSSNNKREDAPMIQNQAASTTLGDIDALAALKEQLEGKKLEHHHHHH | not failed
MTMITFSARLAPFQPETVWTLEAGTLIETRGRIERRFPLSSLTRYSLSLAPDGRRRVLLVVFGRRRLLIPSQSYVGPGRFEDRLAAFSVLARALAAVGADLSPRARFGLARLEARTALTFVMGLLAFGAASTLLFSLTAGMVAVGVDLAARMAFVLILMVAALPWLARPADFDPRDPPADLLP | failed
VLEVTQKATPNPSLLAAEDQVPCEKCGSLVPVWDMPEHMDYHFALELQKSFLQPHSSNPQVVSAVSHQGKRNPKSPLACTNKRPRPEGMQTLESFFKPLTH | failed
MEEPKWLEGLLRTNFFSICPRHRETPRNECNMFCLSCQNAAFCFYCRSSFHIDHPVLQIRRSSYHDVVRVSEIENALDIRGVQTYVINSARVLFLNERPQPKNSSHEPFLIPFASVPWVARFVFLHLFSMQNSFL | not failed
MHGTRRTRKDSPCMPAIHRAPLLRRREFRHEDRNGSLAPALDLIAWSRSAFGWLAHQPYLLLSLTSLFWAGNIVLGRAVAGHVPPVTLSCARWVGAMLLLLPFAWPHLRHDWRKLRAQWKLMIVLSATGFAINNALSYWGLQYTQALNALLMQSSGPLFVALWSLLLFGVRLTWMQATGIALSLLGVLTIILRGDFAALAGIELNRGDLMVAGALCAFGLYSALMPKRPATHPLSLIVVTTGCGALLLLPFSAWEYASGVRPSADWISVATLAYVVIFPSMLAYLCFNRGVALIGPNRSAPFLHLMPVFGSVMAIVLLGEKPELFHLAGYAMVVAGVFIAARR | failed
MLDKNKFIQINLVPCHFCYSFLSYASILEAIMKFKNILVVLNPSNEKQYALARAVRLVEEQKNETKVKITALLSVYDLSYEMSALLSSEERSEMHQQVIEKHRHAVQYYLDKYANPEIELQSHIVWNSNEADAINEEVENNNYDLVVKYTKDEEKLTSLIFTPIDWQLLRKCPIPVLMVRDGDWKHPRRILVAVNVSGEQEYQDEFNQELVETGISLAENLNRGNVHLVAAYPSAPINMAIDLPEFNTSGYENGIRGQHLINMKALRQKFGIDEDHTHVREGFPEEVIPEVAKEIEAELVILGTVGRTGLSAALLGNTAEHVISKLSCNLLGIKPSKKDD | failed
